Reference: patent publication US20240294890, “SYSTEMS, METHODS, AND COMPOSITIONS FOR RNA-GUIDED RNA-TARGETING CRISPR EFFECTORS” (MASSACHUSETTS INSTITUTE OF TECHNOLOGY, published 2024)

Molecular target: T1, DisCas7-11 (Desulfonema ishimotonii)
T1 chain: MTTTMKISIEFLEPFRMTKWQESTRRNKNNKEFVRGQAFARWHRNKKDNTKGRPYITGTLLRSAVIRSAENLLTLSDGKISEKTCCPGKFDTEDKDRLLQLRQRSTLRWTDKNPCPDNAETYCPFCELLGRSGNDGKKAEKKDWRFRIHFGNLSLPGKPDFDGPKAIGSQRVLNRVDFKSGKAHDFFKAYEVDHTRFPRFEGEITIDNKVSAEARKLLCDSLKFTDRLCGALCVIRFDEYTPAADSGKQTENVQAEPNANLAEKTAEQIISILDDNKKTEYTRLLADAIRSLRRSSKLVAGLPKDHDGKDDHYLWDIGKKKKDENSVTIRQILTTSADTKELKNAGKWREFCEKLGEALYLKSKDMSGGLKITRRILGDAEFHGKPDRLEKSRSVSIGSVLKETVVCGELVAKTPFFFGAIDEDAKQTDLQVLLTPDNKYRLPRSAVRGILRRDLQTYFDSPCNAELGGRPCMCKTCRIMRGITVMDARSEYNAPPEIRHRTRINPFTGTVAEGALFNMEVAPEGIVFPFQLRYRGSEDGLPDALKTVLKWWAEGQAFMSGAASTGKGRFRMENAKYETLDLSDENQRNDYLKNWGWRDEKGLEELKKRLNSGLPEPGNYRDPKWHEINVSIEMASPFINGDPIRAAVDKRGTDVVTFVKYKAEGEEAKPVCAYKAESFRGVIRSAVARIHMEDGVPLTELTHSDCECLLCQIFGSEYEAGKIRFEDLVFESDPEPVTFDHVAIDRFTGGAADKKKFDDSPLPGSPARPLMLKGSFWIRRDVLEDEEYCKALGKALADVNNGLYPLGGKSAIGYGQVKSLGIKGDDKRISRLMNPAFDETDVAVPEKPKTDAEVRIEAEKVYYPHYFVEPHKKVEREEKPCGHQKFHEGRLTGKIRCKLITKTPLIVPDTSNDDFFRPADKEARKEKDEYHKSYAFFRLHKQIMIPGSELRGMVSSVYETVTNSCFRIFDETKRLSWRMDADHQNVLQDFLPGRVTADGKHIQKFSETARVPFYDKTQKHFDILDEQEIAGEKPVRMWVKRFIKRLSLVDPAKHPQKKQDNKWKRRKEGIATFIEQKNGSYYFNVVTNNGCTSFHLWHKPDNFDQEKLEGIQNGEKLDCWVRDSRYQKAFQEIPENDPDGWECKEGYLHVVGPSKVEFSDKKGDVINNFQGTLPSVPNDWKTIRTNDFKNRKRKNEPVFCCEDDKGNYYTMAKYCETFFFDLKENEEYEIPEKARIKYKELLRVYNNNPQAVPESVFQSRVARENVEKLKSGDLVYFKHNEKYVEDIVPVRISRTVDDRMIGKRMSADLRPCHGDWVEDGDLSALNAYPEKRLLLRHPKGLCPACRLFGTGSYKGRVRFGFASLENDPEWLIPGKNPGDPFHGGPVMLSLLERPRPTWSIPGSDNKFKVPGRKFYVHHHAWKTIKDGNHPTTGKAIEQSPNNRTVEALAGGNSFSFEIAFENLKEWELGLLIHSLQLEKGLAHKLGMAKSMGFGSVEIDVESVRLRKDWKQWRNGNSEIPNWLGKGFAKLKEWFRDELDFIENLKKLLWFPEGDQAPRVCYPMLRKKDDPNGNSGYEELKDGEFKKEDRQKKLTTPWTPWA
Experiment: EMSA; target binding crRNA-dependent; non-targeting control
Settings: tags: Twin-Strep-SUMO tag cleaved off during purification; label: Cy5.5 body label
Description: Electrophoretic mobility shift assays (EMSA) for crRNA-target interactions and quantification of EMSA intensities were performed (FIGS. 17A-F). The EMSA assays for targeting crRNA in the absence of DisCas7-11 show minimal binding of the cRNA and shift of the labeled target).

B1: DisCas7-11 non-targeting crRNA ; MS2 target 153 nt (ssRNA ; ssRNA)
RNA 1: GGUUGGAAAGCCGGUUUUCUUUGAUGUCACGGAACCGCCAAUAUAACAAUACAGGUAUUAUAGUUG
RNA 2: GGGGCAAACUCCGGCAUCUACUAAUAGACGCCGGCCAUUCAAACAUGAGGAUUACCCAUGUCGAAGACAACAAAGAAGUUCAACUCUUUAUGUAUUGAUCUUCCUCGCGAUCUUUCUCUCGAAAUUUACCAAUCAAUUGCUUCUGUCGCUACU
binding result: no binding
